The values below are quoted from earlier work in publication PMC4798892.

pKd: −log10 of the molar value.

The pKd is the Kd on a negative log10 scale, so that one unit is a factor of ten.

The target of series [1] is Histone H3 (H3K9me3S10ph) (Homo sapiens) (UniProt P68431).
Series [2] has as its target Histone H3 (H3K4me0) (Homo sapiens) (UniProt P68431).
The target of series [3] is Histone H3 (H3K9me3) (Homo sapiens) (UniProt P68431).

Take ATRX ADD (from UniProt P46100): the results for the pKd in series [1], in series [2] and in series [3] were 6.72, 5.52 and 6.96, respectively.
